According to the supplement of paper PMC10567573:

B1: SNAP91 (parent)
chain: FAAPSPATTASPAKVDSSGVIDLF

Variants of: B1
Assay: protein stability index of a GFP-peptide fusion (GPS, HEK-293T) (PSI 1-6); higher = more stable
Conditions: c terminus: a fixed tail appended
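Note: lentivirally expressed fusions sorted by FACS into six bins by GFP to DsRed ratio, PSI derived from sequencing read proportions per bin multiplied by bin number.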

| Variant | protein stability index |
| --- | --- |
| FAAPSPATTASPAKVDSSGVIDFF | 2.29 |
| FAAPSPATTASPAKVDSSGVIDPF | 3.74 |
| FAAPSPATTASPAKVDSSGVIDTF | 3.74 |
| FAAPSPATTASPAKVDSSGVIDMF | 3.25 |
| FAAPSPATTASPAKVDSSGVIDDF | 4.69 |
| FAAPSPATTASPAKVDSSGVIDAF | 3.78 |
| FAAPSPATTASPAKVDSSGVIDWF | 2.55 |
| FAAPSPATTASPAKVDSSGVIDRF | 3.76 |
| FAAPSPATTASPCKVDSSGVIDLF | 2.29 |
| FAAPSPATTASPPKVDSSGVIDLF | 3.09 |
| FAAPSPATTASPEKVDSSGVIDLF | 2.61 |
| FAAPSPATTASPQKVDSSGVIDLF | 2.37 |
| FAAPSPATTASPHKVDSSGVIDLF | 2.3 |
| FAAPSPATTASPVKVDSSGVIDLF | 2.79 |
| FAAPSPATTASPKKVDSSGVIDLF | 3.05 |
| FAFPSPATTASPAKVDSSGVIDLF | 1.62 |
| FANPSPATTASPAKVDSSGVIDLF | 1.86 |
| FAVPSPATTASPAKVDSSGVIDLF | 2.46 |
| FADPSPATTASPAKVDSSGVIDLF | 2.29 |
| FAWPSPATTASPAKVDSSGVIDLF | 2.09 |
| FATPSPATTASPAKVDSSGVIDLF | 2.6 |
| FALPSPATTASPAKVDSSGVIDLF | 2.33 |
| FAPPSPATTASPAKVDSSGVIDLF | 2.44 |
| FAMPSPATTASPAKVDSSGVIDLF | 1.92 |

| Variant | protein stability index |
| --- | --- |
| FAAPSPATTASPAKVDSSGVIRLF | 1.87 |
| FAAPSPATTASPAKVDSSGVIKLF | 2.11 |
| FAAPSPATTASPAKVDSSGVIPLF | 2.68 |
| FAAPSPATTASPAKVDSSGVIYLF | 2.04 |
| FAAPSPATTASPAKVDSSGVISLF | 1.76 |
| FAAPSPATTASPAKVDSSGVIALF | 2.03 |
| FAAPSPATTASPAKVDSSGVIMLF | 2.81 |
| FAAPSPATTASPAKVDSSGVIDLM | 3.72 |
| FAAPSPATTASPAKVDSSGVIDLG | 4.35 |
| FAAPSPATTASPAKVDSSGVIDLV | 3.99 |
| FAAPSPATTASPAKVDSSGVIDLA | 4.03 |
| FAAPSPATTASPAKVDSSGVIDLI | 3.34 |
| FAAPSPATTASPAKVDSSGVIDLN | 4.1 |
| FAAPSPATTASPAKVDSSGVIDLH | 4.52 |
| FAAPSPATTASPAKVDSSGVIDLY | 2.88 |
| FAAPSPATTVSPAKVDSSGVIDLF | 2.94 |
| FAAPSPATTQSPAKVDSSGVIDLF | 2.27 |
| FAAPSPATTHSPAKVDSSGVIDLF | 2.29 |
| FAAPSPATTISPAKVDSSGVIDLF | 2.42 |
| FAAPSPATTLSPAKVDSSGVIDLF | 2.74 |
| FAAPSPATTGSPAKVDSSGVIDLF | 1.64 |
| FAAPSPATTSSPAKVDSSGVIDLF | 2.32 |
| FAAPSPATTYSPAKVDSSGVIDLF | 1.72 |
| FAAPSPATTMSPAKVDSSGVIDLF | 2.24 |

| Variant | protein stability index |
| --- | --- |
| FAAPSPATTWSPAKVDSSGVIDLF | 2.84 |
| FAAPSPATTASPAKVMSSGVIDLF | 1.92 |
| FAAPSPATTASPAKVGSSGVIDLF | 2.11 |
| FAAPSPATTASPAKVVSSGVIDLF | 2.3 |
| FAAPSPATTASPAKVYSSGVIDLF | 1.53 |
| FAAPSPATTASPAKVNSSGVIDLF | 2.53 |
| FAAPSPATTASPAKVISSGVIDLF | 1.99 |
| FAAPSPATTASPAKVWSSGVIDLF | 1.46 |
| FAAPSPATTASPAKVHSSGVIDLF | 2.82 |
| FAAPSPATTALPAKVDSSGVIDLF | 2.77 |
| FAAPSPATTAAPAKVDSSGVIDLF | 2.47 |
| FAAPSPATTAMPAKVDSSGVIDLF | 2.28 |
| FAAPSPATTAKPAKVDSSGVIDLF | 2.6 |
| FAAPSPATTANPAKVDSSGVIDLF | 2.38 |
| RAAPSPATTASPAKVDSSGVIDLF | 2.94 |
| EAAPSPATTASPAKVDSSGVIDLF | 4.39 |
| SAAPSPATTASPAKVDSSGVIDLF | 3.56 |
| LAAPSPATTASPAKVDSSGVIDLF | 3.4 |
| YAAPSPATTASPAKVDSSGVIDLF | 2.3 |
| AAAPSPATTASPAKVDSSGVIDLF | 3.95 |
| WAAPSPATTASPAKVDSSGVIDLF | 3.01 |
| QAAPSPATTASPAKVDSSGVIDLF | 4.28 |
| FAAPSPATTASPAKVDSSGSIDLF | 2.43 |
| FAAPSPATTASPAKVDSSGFIDLF | 1.56 |

| Variant | protein stability index |
| --- | --- |
| FAAPSPATTASPAKVDSSGPIDLF | 2.79 |
| FAAPSPATTASPAKVDSSGNIDLF | 2.77 |
| FAAPSPATTASPAKVDSSGQIDLF | 2.96 |
| FAAPSPATTASPAKVDSSGAIDLF | 2.45 |
| FAAPSPATTASPAKVDSSGMIDLF | 2.5 |
| FAAPSPATTASPAKVDSSGGIDLF | 2.77 |
| FAAPSPATTASPAKVDSSGVFDLF | 2.25 |
| FAAPSPATTASPAKVDSSGVMDLF | 3.15 |
| FAAPSPATTASPAKVDSSGVKDLF | 3.79 |
| FAAPSPATTASPAKVDSSGVWDLF | 1.88 |
| FAAPSPATTASPAKVDSSGVGDLF | 3.64 |
| FAAPSPATTASPAKVDSSGVNDLF | 4.12 |
| FAAPSPATTASPAKVDSSGVRDLF | 3.23 |
| FAAPSPAETASPAKVDSSGVIDLF | 2.23 |
| FAAPSPAHTASPAKVDSSGVIDLF | 3.12 |
| FAAPSPADTASPAKVDSSGVIDLF | 2.65 |
| FAAPSPACTASPAKVDSSGVIDLF | 2.56 |
| FAAPSPAQTASPAKVDSSGVIDLF | 2.54 |
| FAAPSPANTASPAKVDSSGVIDLF | 2.58 |
| FAAPSPASTASPAKVDSSGVIDLF | 2.52 |
| FAAPSPAFTASPAKVDSSGVIDLF | 1.33 |
| FAAPSPAITASPAKVDSSGVIDLF | 2.85 |
